US7163921 (dated 2007)
Numbered stars: 1 amine (or outer) side, 2 acyl side, 3 side chain; on linkers, the order of the positions; unused ones are H or OH. Square brackets hold non-standard residues; d marks the D form. * marks the point of attachment. X1 = N‑((R)-1-(2-naphthyl)ethyl)amide, C[C@@H](N*)c1ccc2ccccc2c1; 3,5‑dimethyl‑Tyr = Cc1cc(C[C@H](N[*:1])C(=O)[*:2])cc(C)c1O[*:3]; 6‑guanidinohexyl = N=C(N)NCCCCCC*

How the values were obtained:
nociceptin receptor = nociceptin receptor (human, UniProt P41146); assay: competition, [3H]nociceptin, 25C, pH 7.8
mu opioid receptor = mu opioid receptor (human, UniProt P35372); assay: competition, [3H]diprenorphine, 25C, pH 7.8
Sequence of mu opioid receptor (P35372 whole entry): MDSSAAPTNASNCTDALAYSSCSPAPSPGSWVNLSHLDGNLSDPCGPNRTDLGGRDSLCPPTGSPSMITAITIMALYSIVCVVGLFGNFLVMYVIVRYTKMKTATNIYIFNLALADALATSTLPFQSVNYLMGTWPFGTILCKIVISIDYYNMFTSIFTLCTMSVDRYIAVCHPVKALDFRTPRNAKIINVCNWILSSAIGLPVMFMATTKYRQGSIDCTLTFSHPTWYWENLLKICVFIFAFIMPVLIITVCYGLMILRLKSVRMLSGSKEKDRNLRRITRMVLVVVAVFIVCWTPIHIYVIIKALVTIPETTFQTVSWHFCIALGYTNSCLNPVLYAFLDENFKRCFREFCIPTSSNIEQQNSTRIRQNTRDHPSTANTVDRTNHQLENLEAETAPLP

Sequence of nociceptin receptor (P41146 whole entry): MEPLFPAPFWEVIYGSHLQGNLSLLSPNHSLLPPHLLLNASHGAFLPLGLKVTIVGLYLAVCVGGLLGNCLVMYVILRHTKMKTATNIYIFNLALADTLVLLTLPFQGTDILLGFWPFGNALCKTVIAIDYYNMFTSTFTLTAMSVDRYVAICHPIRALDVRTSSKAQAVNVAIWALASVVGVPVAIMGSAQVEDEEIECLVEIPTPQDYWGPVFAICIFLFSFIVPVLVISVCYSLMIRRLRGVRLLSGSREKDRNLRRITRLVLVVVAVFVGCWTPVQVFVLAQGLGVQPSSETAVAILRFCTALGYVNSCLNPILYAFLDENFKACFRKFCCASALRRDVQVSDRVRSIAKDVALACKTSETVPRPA

B1: Example 27 (N-α-6-guanidinohexyl-3,5-dimethyl-Tyr-3,5-dimethyl-Tyr-N-[(R)-1-(2-naphthyl)ethyl]-argininamide) (peptide)
chain: {6‑guanidinohexyl}-[3,5‑dimethyl‑Tyr]-[3,5‑dimethyl‑Tyr]-Arg-X1
SMILES: Cc1cc(C[C@H](NCCCCCCNC(=N)N)C(=O)N[C@@H](Cc2cc(C)c(O)c(C)c2)C(=O)N[C@@H](CCCNC(=N)N)C(=O)N[C@H](C)c2ccc3ccccc3c2)cc(C)c1O
Ki (nociceptin receptor): 0.6 nM
Ki (mu opioid receptor): 10 nM

B2: Example 25 (N-α-6-guanidinohexyl-3,5-dimethyl-Tyr-Tyr-N-[(R)-1-(2-naphthyl)ethyl]-argininamide) (peptide)
chain: {6‑guanidinohexyl}-[3,5‑dimethyl‑Tyr]-Tyr-Arg-X1
SMILES: Cc1cc(C[C@H](NCCCCCCNC(=N)N)C(=O)N[C@@H](Cc2ccc(O)cc2)C(=O)N[C@@H](CCCNC(=N)N)C(=O)N[C@H](C)c2ccc3ccccc3c2)cc(C)c1O
Ki (nociceptin receptor): 0.9 nM
Ki (mu opioid receptor): 14 nM

B3: Example 23 (N-α-6-guanidinopentyl-Tyr-Tyr-N-[(R)-1-(2-naphthyl)ethyl]-argininamide) (peptide)
chain: {6‑guanidinopentyl}-Tyr-Tyr-Arg-X1
Ki (nociceptin receptor): 1.8 nM
Ki (mu opioid receptor): 59 nM

B4: Example 1 (N-α-6-guanidinohexyl-Tyr-Tyr-Arg-Trp-NH2) (peptide)
chain: {6‑guanidinohexyl}-YYRW-NH2
SMILES: N=C(N)NCCCCCCN[C@@H](Cc1ccc(O)cc1)C(=O)N[C@@H](Cc1ccc(O)cc1)C(=O)N[C@@H](CCCNC(=N)N)C(=O)N[C@@H](Cc1c[nH]c2ccccc12)C(N)=O
Ki (nociceptin receptor): 0.43 nM
Ki (mu opioid receptor): 40 nM
